Results as given in publication PMC4385108, “Characterization of the Kluyveromyces marxianus strain DMB1 YGL157w gene product as a broad specificity NADPH-dependent aldehyde reductase” (AMB Express, 2015).

Key:
purified protein [1] = substrate: CC(=O)C=O; experiment: purified protein; format: biochemical, Kluyveromyces marxianus; conditions: 100 mM acetate pH 5.5, 25°C, 0.2 mM NADPH
purified protein [2] = substrate: NC(=O)C1=CN([C@@H]2O[C@H](COP(=O)(O)OP(=O)(O)OC[C@H]3O[C@@H](n4cnc5c(N)ncnc54)[C@H](OP(=O)(O)O)[C@@H]3O)[C@@H](O)[C@H]2O)C=CC1; experiment: purified protein; format: biochemical, Kluyveromyces marxianus; conditions: 100 mM acetate pH 5.5, 25°C, co-substrate methylglyoxal (5 mM in the standard assay), kcat unit as printed, presumably min^−1, varied: cofactor

B1: KmGRE2 (YGL157w gene product) (Kluyveromyces marxianus) (protein)
chain: MTYVVVTGASGYLAQHVIKQLLERNYKVIGTVRNQQKAKDIAKLFQNDNLTLELVPDLLQADVFDDLFLKYTGQIKHVIHTASPCRFDTTEYENEMLLPAINGTKRVLESIKKYASETVETVVYTSSVSALANPAGILDSNLTLTEESWNPDSFEDGKKDVFSAYYVSKTFAERTAWDFWKENKDQVKFQLTTICPSYIFGPQAFEENAKGTLNFSTEIVNKILHSKPGDELDKNFAGAFVDVRDVARAHVLALEKPELKSKRLVLLNDVYALQDVADYINKHFPELRGKIATGVPGEGKEIVKYIAHYDNSKTKKLLGFEFISFGQAITDTVAQILKANN
notes: monomer, about 36 kDa by gel filtration, 40 kDa by SDS-PAGE
B1 was tested, and the Km (purified protein [1]) was 300 ± 18 µM, the kcat (purified protein [1]) was 1.3 × 10^3 ± 15 min^−1 and the Km (purified protein [2]) was 28 ± 1.2 µM.
